The results in this text go back to PMC3439879.

Where two headings read alike, the source gives them in different places.

For data set [1], the system named is HfqCp (Clostridium perfringens). As to the kind of experiment: EMSA. Particulars: 50 mM Tris-HCl pH 7.5, 100 mM KCl, 10 mM MgCl2, room temperature; […]. On the technique in general: In EMSA bound probe runs differently from free probe, usually more slowly.
The target in data set [2] is Hfq (HfqEc) (Escherichia coli) (UniProt P0A6X3). The data set can be described thus: EMSA.
The target is the same in data set [3]. The data set can be described thus: SHAPE footprinting.

Sequence of Hfq (HfqEc) (Escherichia coli) (P0A6X3 whole entry): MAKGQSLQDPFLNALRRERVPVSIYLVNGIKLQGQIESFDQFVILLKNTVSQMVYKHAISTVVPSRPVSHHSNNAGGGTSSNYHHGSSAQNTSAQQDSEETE

Regarding GlmZ, the dissociation constant (Kd) in data set [1] is 12 nM; in data set [2] (50 mM Tris-HCl pH 7.5, 100 mM KCl, 10 mM MgCl2, room temperature, […]), 4.5 nM.
In the case of GlmY, the Kd in data set [2] is 4.3 nM.
For glmS mRNA -161 to +21, in data set [2], the Kd turned out to be 30 nM.
In the case of “GGUUCUGGCCGGCUAACCCGGUCACAUGGGAUGAGGAGAUAACAUAAUCUCCCUCCCACAAGCAGUAACUAUAAAAAUAACCCCACUCUCUACAAGGCUCGGGGCGCCCGAAAAAACGGGCAUACAGGUUGACCGACAACGAUAUAAAUCGGAAUCAAAAACUAUGUGUGGAAUUGUUGGCGCGAAUAUUAAGCUUGCUCGG [glmS mRNA -161 to +21]”, the Kd in data set [2] was determined as 30 nM.
As to “GGCCUUCGGGCCAAUUCUGGCCGGCUAACCCGGUCACAUGGGAUGAGGAGAUAACAUAAUCUCCCUCCCACAAGCAGUAACUAUAAAAAUAACCCCACUCUCUACAAGGCUCGGGGCGCCCGAAAAAACGGGCAUACAGGUUGACCGACAACGAUAUAAAUCGGAAUCAAAAACUAUGUGUGGAAUUGUUGGCGCGUCGAUCCGGUUCGCCGGAUCCAAAUCGGGCUUCGGUCCGGUUCAAUAUUGGAUCCGCUCGG [glmS mRNA SHAPE construct]”, the binding result in data set [3] is on record as “binds”.

In general, Kd refers to the concentration at which binding is half-saturated. The low end stands for higher affinity, the high end for lower affinity.
